We go through one molecule from patent US20090304580A1.

The test deals with PAM4 antigen (human pancreatic cancer mucin, CaPan1) (human). The test is described as follows: ELISA on target mucin antigen (FIG. 9). A general note: In an ELISA, binding on a coated surface is turned into a signal by an enzyme label.

B1: monovalent bsPAM4 chemical conjugate (PAM4-Fab′ x anti-DTPA-Fab′) (bispecific antibody, part only; not given: Anti-DTPA Fab′ and constant parts, V domains shown, part only)
VH: QVQLQESGPELVKPGASVKMSCKASGYTFPSYVLHWVKQKPGQGLEWIGYINPYNDGTQYNEKFKGKATLTSDKSSSTAYMELSRLTSEDSAVYYCARGFGGSYGFAYWGQGTLITVSS
VL: DIQLTQSPAIMSASPGEKVTMTCSASSSVSSSYLYWYQQKPGSSPKLWIYSTSNLASGVPARFSGSGSGTSYSLTISSMEAEDAASYFCHQWNRYPYTFGGGTKLEIKR
As usually defined, the EC50 is the concentration that produces a half-maximal response. A high value points to a need for much substance. For the molecule B1, the EC50 is 30.6 nM.
